We go through 16 molecules from US20190367619A1 (ARGENX, published 2019).

Assay [1] addresses T1, cynomolgus galectin-10-His, YRT isoform (cynomolgus).
T1 construct: not shown: His tag
T1 chain: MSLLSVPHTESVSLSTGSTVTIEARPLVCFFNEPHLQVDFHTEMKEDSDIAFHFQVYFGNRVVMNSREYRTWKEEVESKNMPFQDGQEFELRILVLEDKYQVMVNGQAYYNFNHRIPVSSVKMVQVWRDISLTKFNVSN
The assay can be described thus: ELISA, Gal10-His coated at 1 ug/mL, VHH titrated, anti-Myc-HRP. Here is the method:
(§1) The binding capacity of the 15 VHH clones was analysed by ELISA. Briefly, a Maxisorp plate was coated overnight with human or cynomolgus WGS or YRT isoforms galectin-10-His at 1 μg/mL and blocked with PBS 1% casein, before being incubated with a serial dilution of the VHH (from 4 μM, dilution 1/3, 12 points of dilutions). […] Absorbance was measured at 450 nm (reference at 620 nm) with Tecan instrument. Finally, the raw data (OD values) were plotted on GraphPad Prism 7.01. […] As a positive control, clone 1D06 from the previous human specific panel was included.
(In general: ELISA stands for enzyme-linked immunosorbent assay.)

For assay [2], the target named is T2, cynomolgus galectin-10-His, WGS isoform (cynomolgus).
T2 construct: not shown: His tag
T2 chain: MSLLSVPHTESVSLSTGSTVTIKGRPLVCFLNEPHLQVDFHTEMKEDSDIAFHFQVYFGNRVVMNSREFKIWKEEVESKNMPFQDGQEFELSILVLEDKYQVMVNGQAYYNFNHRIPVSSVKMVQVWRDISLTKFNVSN
The assay is described as above. Here is the method:
as §1

The target of the next assay is T3, human galectin-10-His (human).
T3 construct: Whether the last M of the tag is the start Met of galectin-10 is not clear; also called human Gal10-HIS; humanGal10-His
T3 chain: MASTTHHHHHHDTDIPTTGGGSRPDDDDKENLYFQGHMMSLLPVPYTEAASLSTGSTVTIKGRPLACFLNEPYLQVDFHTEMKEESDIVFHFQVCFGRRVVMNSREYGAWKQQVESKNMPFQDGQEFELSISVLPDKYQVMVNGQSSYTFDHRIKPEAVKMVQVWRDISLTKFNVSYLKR
The description is as above. As for the experimental part:
as §1

Assay [3] deals with T4, human galectin-10 as coated in ELISA (soluble galectin-10; tag not given) (human, UniProt Q05315 1-142, limits assumed).
T4 construct: also called coated galectin-10; Gal10
T4 sequence: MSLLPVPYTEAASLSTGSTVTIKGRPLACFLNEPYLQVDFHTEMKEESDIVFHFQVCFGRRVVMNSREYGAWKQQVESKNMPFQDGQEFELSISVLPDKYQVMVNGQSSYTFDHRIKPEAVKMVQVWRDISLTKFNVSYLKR
The assay can be described thus: ELISA, scFv periplasmic extract on coated soluble galectin-10, anti-Myc-HRP. As for the experimental part: In order to test the binding capacity of the scFvs to galectin-10, an ELISA binding assay was established. Briefly, a Maxisorp plate was coated with soluble galectin-10 (1 μg/mL), then blocked with casein, before being incubated with the periplasmic extract (dilution 1/5 in PBS) containing the scFv-Myc. Detection of the binder was carried out with an anti-Myc-HRP antibody. Absorbance was measured at 450 nm (reference at 620 nm) with Tecan instrument. A significant number of galectin-10 scFv binders were isolated after the second round of selection (45-87% of binders).

B1: VHH clone 13H07 (VHH)
VHH: QLQLVESGGGLVQAGGSLRLSCVASGRTFSTYAMDWFRQAPGKEREFVAAISWHSAIYYADAVKGRFTISRDNGKNTMYLQMNNLKPEDTAVYFCAAALRYRFNPSAMEYWGKGTLVTVSS
notes: Purified VHH-Myc-His from E. coli; not shown: Myc and His tags of the phagemid vector
As for B1, the entries for the “Bmax (OD values)” value (in assay [1]; in assay [2]; in the assay with human galectin-10-His) were 3.1 OD, 2.7 OD and 1.5 OD, respectively. Moreover, the EC50 in assay [1] amounted to 1.3 nM; in assay [2], 15.6 nM; with human galectin-10-His, 180 nM.

B2: scFv 4H10 (periplasmic extract, Myc-tagged) (scFv, not shown: small tags and cut ends)
scFv: QVQLVESGGGLVQPGGSLRLSCAASGFTFDDYAMSWVRQAPGKGLEWVSAISWNGGSTYYAESMKGRFTISRDNAKNTLYLQMNSLKSEDAAVYYCAKDLSASGSYYHTFGSWGQGTQVTVSSGGGGSGGGGSGGGGSQAGLTQPPSVAGTLGKTVTISCAGTSSDVGYGDYVSWYQHIPGTAPKLLIYKVKTRASGIPDRFSGSKSGNTASLTISGLQSGDESDYYCASYKNGGTAVFGGGTHLTVL
As for B2, the “PERI-ELISA binding (OD values)” value in assay [3] came out at 3.48 OD.

B3: scFv 4B10 (periplasmic extract, Myc-tagged) (scFv, not shown: small tags and cut ends)
scFv: QLQLVESGGGLVQPGGSLRLSCAASGFTFSNYWMYWVRQAPGKGLEWVSAIDVGGGTTDYAGSVKGRFTISRDNTKSTVYLQMNTLKPEDTALYYCLRGGSYYGGMDYWGKGTLVTVSSGGGGSGGGGSGGGGSQSALTQPSAVSVSLGQTARITCQGAKLGRYYGIWYQQKPGQAPVQVIYGDSNRPSGIPERFSGSSSGGTATLTISGAQAEDEADYYCQSYESSTSPVFGGGTHLTVL
Turning to B3, in assay [3], the “PERI-ELISA binding (OD values)” value worked out at 2.44 OD.

B4: scFv 4G05 (periplasmic extract, Myc-tagged) (scFv, not shown: small tags and cut ends)
scFv: QLQVVESGGGLVQTGGSLTLSCTTSGFTFSRYWMIWVRQAPGKGLEWVSSIYNDGGNTYYADSVKGRFTISRDNSENTLYLQMNSLKSEDTAVYYCAKLKAAYYGMDYWGKGTLVTVSSGGGGSGGGGSGGGGSSSALTQPSAVSVSLGQTARITCQGANLGRYYGIWYQQKPGQAPVQVIYGDSNRPSGIPERFSGSSSGGTATLTISGAQAEDEADYYCQSYESSTSPVFGGGTHLTVL
As to B4, the “PERI-ELISA binding (OD values)” value in assay [3] turned out to be 3.8 OD.

B5: scFv 3A03 (periplasmic extract, Myc-tagged) (scFv, not shown: small tags and cut ends)
scFv: QVQLVESGGGLVQPGGSLRLSCATSGFTFSVYAMSWVRQAPGKGLEWVADINTSGDSTTYADSVKGRFTISRDNAKNTLYLQMNSLKPEDTAVYYCANRYTQERGQGTQVTVSSGGGGSGGGGSGGGGSDVVLTQTPGSLSVVPGEAASISCKPGRTLVHTDGRTYLYWLQQKPGQRPQLLIYQVSNRGSGVPDRFTGSGSGTDFTLKISGVKAEDAGVYYCAQATYYPLTFGSGTRLEIK
B5: the “PERI-ELISA binding (OD values)” value in assay [3] is 3.4 OD.

B6: VHH clone 13E07 (VHH)
VHH: ELQVVESGGGLVQAGDSLRLSCAVSGRTFSSYHMMWFRQAPGKEREFVAAIAWRGGTYCANSVKGRCTISRDNAKDTVYLQMNSLKPEDTAVYFCAASLRYVFDPSAMDYWGKGTLVTVSS
notes: as for B1
For B6, the “Bmax (OD values)” value in assay [1] was determined as 2.4 OD; in assay [2], 2.3 OD; with human galectin-10-His, 1.1 OD. The same molecule registered an EC50 in assay [2] of 371 nM.

B7: VHH clone 13D12 (VHH)
VHH: QLQLVESGGGLVQAGDSLRLSCAASGRTFSSYHMMWFRQAPGKEREFVAALAWRGGTYCANSVKGRCTISRDNAQDTVYLQMNSLKPEDTAVYFCAASRRYVFDPSAMDYWAKGTLVTVSS
notes: as for B1
As to B7, the “Bmax (OD values)” value in assay [1] was 2.4 OD; in assay [2], 1.3 OD; with human galectin-10-His, 0.8 OD. In addition, a half-maximal effect in assay [1] (EC50) was put at 119 nM.

B8: VHH clone 13C07 (VHH)
VHH: QLQVVESGGGLVQAGGSLRLSCAASSSAYSMAWFRQAPGKEREFVAAITWSGGSHHDDSVKGRFTISRDGAKNTVYLQMNSLKPEDTAVYYCAVGTLYSFSYRDYDYWGQGTQVTVSS
notes: as for B1
Consider B8, for which the “Bmax (OD values)” value was 2.8 OD in assay [1], 2.9 OD in assay [2] and 1.3 OD with human galectin-10-His. Moreover, the figures for the EC50 (in assay [1]; in assay [2]; with human galectin-10-His) were 33.2 nM, 7.1 nM and 107 nM, respectively.

B9: VHH clone 13G12 (VHH)
VHH: QLQVVESGGGLVQAGGSLRLSCAASSSAYSMGWFRQAPGKEREFVAVISWSGGSHYDDSVKGRFTISRDGAKNTVYLQMNSLKPEDTAVYYCAVGTLYSFRYRDYDYWGQGTQVTVSS
notes: as for B1
With B9, the “Bmax (OD values)” value was 3.1 OD in assay [1], 2.9 OD in assay [2] and 1.6 OD in the assay with human galectin-10-His. The EC50 in assay [1] came out at 3.1 nM; in assay [2], 11.8 nM; with human galectin-10-His, 141 nM.

B10: VHH clone 14F10 (VHH)
VHH: EVQLVESGGGLVQAGDSLRLSCAASGRTFSGYAVGWFRQAPGKEREFVTIISWNGGTHYADSVKGRFAISRDNAKNTVYLQMNNLKPEDTAVYYCAVSPKYYFSPETYNYWGQGTQVTVSS
notes: as for B1
As for B10, the “Bmax (OD values)” value is 3 OD in assay [1], 2.6 OD in assay [2] and 0.5 OD in the assay with human galectin-10-His. Further, the figures for the EC50 in assay [1] and in assay [2] were 3 nM and 60.4 nM, respectively.

B11: VHH clone 13C10 (VHH)
VHH: QLQLVESGGGLVQAGGSLKLSCAASGRTFNPYTMGWFRQAPGKEREFVAVVSSGGGTYYANSVKGRFTISRDNAKATVYLQMNSLKPEDTAVYYCAAGSIFRWSPMSYDYWGQGTQVTVSS
notes: as for B1
Consider B11, for which the “Bmax (OD values)” value amounted to 2.7 OD in assay [1], 2.3 OD in assay [2] and 1 OD in the assay with human galectin-10-His. This molecule also returned an EC50 in assay [1] of 186 nM.

B12: VHH clone 1D06 (VHH, not shown: large carriers)
VHH: QLQLVESGGGLVQPGGSLRLSCAASENSVSTYAMGWFRQAPGKEREFVAAITRAGGNTYNADSVKGRFTISRDNAENTIYLQMNSLKPEDTAVYSCAAGPRYSTISTMFPYWGQGTQVTVSS
notes: Positive control from the previous human-specific panel; also called 1D6
For the molecule B12, in assay [1], the “Bmax (OD values)” value came to 0 OD and the binding result is recorded as “no binding (tested: up to 4 uM VHH)”. In assay [2], the “Bmax (OD values)” value was determined as 0 OD and the binding result is listed as “no binding (tested: up to 4 uM VHH)”. Further, in the assay with human galectin-10-His, the “Bmax (OD values)” value is 1.2 OD and the EC50 is 90.7 nM.

B13: VHH clone 14E02 (VHH)
VHH: QVQLVESGGGLAQAGGSLRLSCVASGRAAGTYSMAWFRQAPGKEREFVAAITWAGGYTYGADSEKGRFTISRDNAKNTVYLQMNSLKPEDTAVYSCAGGRLFTSQSSAYQYWGQGTQVTVSS
notes: as for B1
With B13, the “Bmax (OD values)” value in assay [1] came out at 2.1 OD; in assay [2], 1.8 OD; with human galectin-10-His, 0.7 OD.

B14: VHH clone 13A05 (VHH)
VHH: QVQLVESGGGLVQAGGSLRLSCAASSSSYSMSWFRQAPGKEREFVAIISWSGGTYYDDSVKGRFTVSRDNAKNTVYLQMNSLKPEDTAVYYCAAGTQFSFSYREYDYWGQGTQVTVSS
notes: as for B1
As for B14, the figures for the “Bmax (OD values)” value (in assay [1]; in assay [2]; with human galectin-10-His) were 2.9 OD, 2.7 OD and 1.8 OD, respectively. For the same molecule, the EC50 in assay [1] turned out to be 66.3 nM; in assay [2] it was 77.8 nM; with human galectin-10-His, 69.7 nM.

B15: VHH clone 13C06 (VHH)
VHH: QLQLVESGGGLVQAGGSLRLSCAASSSSYSMGWFRQAPGKEREFVATISWSGGFYYDDSVKGRFTVSRDNAKNTVYLQMNSLKPEDTAVYYCAAGTRFSFSYREYHYWGQGTQVTVSS
notes: as for B1
On to B15, for which the “Bmax (OD values)” value in assay [1] amounted to 2.9 OD; in assay [2] it was 2.9 OD; with human galectin-10-His, 2.8 OD. For the same molecule, the EC50 in assay [1] came to 16.2 nM; in assay [2] it was 10.3 nM; with human galectin-10-His, 27.5 nM.

B16: VHH clone 14E10 (VHH)
VHH: ELQLVESGGGLVQAGGSLRLSCAASEGTFRPYAMGWFRQAPRKEREFVAVISLSGAYTYNVNAVKGRFTISRDNAKNTVYLQMNSLTPEDTAIYYCGASRTYYRTDESTYEYWGQGTQVTVSS
notes: as for B1
For the molecule B16, the “Bmax (OD values)” value in assay [1] was determined as 2.7 OD; in assay [2] it was 1.4 OD; in the assay with human galectin-10-His, 0.5 OD. This molecule also returned a 50% effective concentration (EC50) in assay [1] of 15.8 nM.

For orientation: EC50 means the concentration that produces a half-maximal response.
